Columns and labels:
[1] = target: human GLP-1 receptor (human) (UniProt P43220); assay: cell-based or functional assay
PCSK9 = PCSK9 (UniProt Q8NBP7); assay: cell-based or functional assay

human GLP-1 receptor (human), sequence (P43220 24-463): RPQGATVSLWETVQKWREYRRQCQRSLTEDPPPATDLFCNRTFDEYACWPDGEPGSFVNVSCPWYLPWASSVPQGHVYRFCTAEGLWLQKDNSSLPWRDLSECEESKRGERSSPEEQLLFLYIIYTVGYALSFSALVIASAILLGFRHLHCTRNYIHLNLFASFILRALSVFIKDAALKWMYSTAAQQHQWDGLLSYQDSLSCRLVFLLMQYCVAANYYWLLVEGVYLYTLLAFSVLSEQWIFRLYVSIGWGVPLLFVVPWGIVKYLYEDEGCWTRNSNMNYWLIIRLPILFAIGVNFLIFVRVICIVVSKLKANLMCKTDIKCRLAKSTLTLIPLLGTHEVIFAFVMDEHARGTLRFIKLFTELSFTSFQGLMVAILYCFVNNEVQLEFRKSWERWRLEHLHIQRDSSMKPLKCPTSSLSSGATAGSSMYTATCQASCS

EC50 (pM) 0% HSA [1] [pM] | EC50 (pM) 1% HSA [1] [pM] | LDL-R expression in mouse liver, Percentage of baseline (%), dose of inhibitor 22 nmol/kg (PCSK9) [%] | Substance
7.3 | 210 | – | Semaglutide (peptide)
– | – | 157 | Alirocumab (antibody)

Reference: patent US20200231645A1
